“And” between values parts separate entries of the source, which are not always exact repeats. Equal entries are not always repeated.
What was measured:
[1] = system: full thickness skin wounds; test: Acute Wound Model (Example 6); format: in vivo, C57BL/6 mice
Description: 6-8 weeks old male C57BL/6 mice were supplied by Changzhou Cvens Experimental Animal Co. Ltd. Prior to any experiments being conducted, mice were housed under standardized conditions (at a constant temperature or 22±2° C., with alternating 12 hour periods of light and darkness), and were fed on a standard mouse diet with water, for about a week. […] The hair on the back was shaved by a baby hair shaver and depilated with cream. […] EMS skin biopsy punch (Electron Microscopy Sciences, P.O. […] Full thickness skin was removed and the depth reached the fascia. The wounds left open without suture. […] The model group was given same amount of normal saline. Recombinant Human Epidermal Growth Factor (rhEGF, Shanghai Haohai Biological Technology Co. Ltd, Shanghai, China) was purchased and prepared according to the manufacturer's instructions. Lyophilized rhEGF powder (100000 IU/vial) was dissolved in 20 mL of normal saline to make a solution with a 5000 IU/mL concentration. […] MedChemExpress, MCE China, Shanghai, China) was obtained in a powder form and was dissolved in ultrapure water to obtain solutions with concentrations as described in Table 22 (L, M and H indicate low, medium and high montelukast doses, respectively) Wounds were wrapped up with transparent dresser after drug administration. Photographs were taken for each wound every other day from Day 0. Photos were scanned into a computer, and wound areas calculated using ImageJ image analysis software (National Institutes of Health, […]). The unhealed wound area was expressed as a percentage of the original wound area: At/A0×100%, where A0 and At refer to the initial area at Day 0 and the wound area at the date of measurement (time t), respectively. […] Half of the tissue was preserved in 10% neutral buffered formalin (Nanchang […] Experimental Equipment Co., Ltd., Nanchang, […] Provence, China), and analyzed by histological embedding in paraffin wax, sectioning and staining. HE and Masson stained paraffin sections were analyzed under an optical microscope. Skin regeneration, fibroblastic proliferation, collagen regeneration scores and inflammation scores were estimated. The rest of the samples were stored at -80° C. for further analysis. […] The supernatant was collected, and the extracted protein was used for ELISA analysis using standard ELISA test kits and an ELISA reader (SH-1000 Hitachi, Japan). […] (Beijing, China).

[2] = system: full thickness skin wounds in diabetic mice; test: Diabetic Wound Model (Example 7); format: in vivo, db/db mice (C57BL/KsJ-db/db); conditions: Day 6; wound tissue; rhEGF 100 IU/each, Mon 100 μg/each, once daily topically
Description: A similar experiment with essentially the same protocol to that described in Example 6 above was carried out on 8 to 12 week-old male db/db mice (C57BL/KsJ-db/db, with a body weight of 35-45 g/mouse; supplied by Changzhou Cvens Experimental Animal Co. Ltd.).
An EMS skin biopsy punch with a […] diameter was used to make wounds.
Different drugs were administrated topically at 20 μL/wound, once daily from Day 0 to Day 18. The model group was given same amount of normal saline.
Samples were taken on Day 6, Day 12 and Day 18 post-wound inflictions.
Histological specimens were analyzed and skin regeneration, fibroblast proliferation, collagen regeneration scores (Masson score) and inflammation scores were estimated as follows.
The HE and Masson stained slices were observed under an optical microscope and were scored (1, 2 or 3 points) according to the following criteria. […]
Fibroblast proliferation was scored as the following criteria:
Inflammation was scored as the following criteria:
Collagen deposition score criterion for the Masson stained sample were as follows. […] No clear blue staining was given 0 points; blue fiber appearing in a scattered pattern was scored as 1 points; if more blue fiber appeared, this was scored as 2 points, and a diffuse blue colour was given 3 points.

[3] = wound tissue, rhEGF 100 IU/wound

B1: rhEGF: Recombinant Human Epidermal Growth Factor, 5000 IU/mL in normal saline (protein, UniProt P01133 23-1207, looked up)
Pro-epidermal growth factor: PQHWSCPEGTLAGNGNSTCVGPAPFLIFSHGNSIFRIDTEGTNYEQLVVDAGVSVIMDFHYNEKRIYWVDLERQLLQRVFLNGSRQERVCNIEKNVSGMAINWINEEVIWSNQQEGIITVTDMKGNNSHILLSALKYPANVAVDPVERFIFWSSEVAGSLYRADLDGVGVKALLETSEKITAVSLDVLDKRLFWIQYNREGSNSLICSCDYDGGSVHISKHPTQHNLFAMSLFGDRIFYSTWKMKTIWIANKHTGKDMVRINLHSSFVPLGELKVVHPLAQPKAEDDTWEPEQKLCKLRKGNCSSTVCGQDLQSHLCMCAEGYALSRDRKYCEDVNECAFWNHGCTLGCKNTPGSYYCTCPVGFVLLPDGKRCHQLVSCPRNVSECSHDCVLTSEGPLCFCPEGSVLERDGKTCSGCSSPDNGGCSQLCVPLSPVSWECDCFPGYDLQLDEKSCAASGPQPFLLFANSQDIRHMHFDGTDYGTLLSQQMGMVYALDHDPVENKIYFAHTALKWIERANMDGSQRERLIEEGVDVPEGLAVDWIGRRFYWTDRGKSLIGRSDLNGKRSKIITKENISQPRGIAVHPMAKRLFWTDTGINPRIESSSLQGLGRLVIASSDLIWPSGITIDFLTDKLYWCDAKQSVIEMANLDGSKRRRLTQNDVGHPFAVAVFEDYVWFSDWAMPSVMRVNKRTGKDRVRLQGSMLKPSSLVVVHPLAKPGADPCLYQNGGCEHICKKRLGTAWCSCREGFMKASDGKTCLALDGHQLLAGGEVDLKNQVTPLDILSKTRVSEDNITESQHMLVAEIMVSDQDDCAPVGCSMYARCISEGEDATCQCLKGFAGDGKLCSDIDECEMGVPVCPPASSKCINTEGGYVCRCSEGYQGDGIHCLDIDECQLGEHSCGENASCTNTEGGYTCMCAGRLSEPGLICPDSTPPPHLREDDHHYSVRNSDSECPLSHDGYCLHDGVCMYIEALDKYACNCVVGYIGERCQYRDLKWWELRHAGHGQQQKVIVVAVCVVVLVMLLLLSLWGAHYYRTQKLLSKNPKNPYEESSRDVRSRRPADTEDGMSSCPQPWFVVIKEHQDLKNGGQPVAGEDGQAADGSMQPTSWRQEPQLCGMGTEQGCWIPVSSDKGSCPQVMERSFHMPSYGTQTLEGGVEKPHSLLSANPLWQQRALDPPHQMELTQ
modifications: Pro-epidermal growth factor
notes: Recombinant Human Epidermal Growth Factor, 5000 IU/mL in normal saline
remaining wound area versus the initial wound ([1]; Day 2, rhEGF 100 IU/wound once daily topically): 85.73 ± 10.29%
remaining wound area versus the initial wound ([1]; Day 4, rhEGF 100 IU/wound): 68.15 ± 16.47%
remaining wound area versus the initial wound ([1]; Day 6, rhEGF 100 IU/wound): 30.85 ± 1.87%
remaining wound area versus the initial wound ([1]; Day 8, rhEGF 100 IU/wound): 16.93 ± 4.03%
remaining wound area versus the initial wound ([1]; Day 12, rhEGF 100 IU/wound): 5.02 ± 3.03%
Hyp content (μg/mg tissue weight), single animals [1, 3]: 6.54 μg/mg tissue weight and 4.89 μg/mg tissue weight and 5.39 μg/mg tissue weight and 5.45 μg/mg tissue weight
Hyp content, Mean (n = 4) [1, 3]: 5.57 μg/mg tissue weight
VEGF content, Mean [2]: 4.55 pg/g

— patent US11672792B2, “Topical formulations comprising montelukast and combinations with mussel adhesive proteins” (ENLITISA (SHANGHAI) PHARMACEUTICAL CO., LTD, priority 2017, dated 2023)
